According to the Human Domainome abundance scans (Beltran et al. 2025):
± gives the uncertainty stated by the source.

B1: Steroid hormone receptor ERR2, residues 100 to 176; numbered along this chain, O95718 (parent)
chain: KRLCLVCGDIASGYHYGVASCEACKAFFKRTIQGNIEYSCPATNECEITKRRRKSCQACRFMKCLKVGMLKEGVRLD

Variants of: B1
Assay: abundance fitness (aPCA) (normalised: wild type 0, dead -1); higher = more abundant; growth selection in yeast, the domain comes from the species named
Settings: Homo sapiens
Variant KRLCLVCGDIASGYHYGVASCEACKAFFKRTIQGNIEYSCPATNEKEITKRRRKSCQACRFMKCLKVGMLKEGVRLD [C46K] has an abundance fitness of -0.572 ± 0.14. KRLCLVCGDIASGYHYGVASCEACKAFFKRTIQGNIEYSCPATNEIEITKRRRKSCQACRFMKCLKVGMLKEGVRLD [C46I] gave an abundance fitness of -1.06 ± 0.43. KRLCLVCGDIASGYHYGVASCEACKAFFKRTIQGNIEYSCPATNELEITKRRRKSCQACRFMKCLKVGMLKEGVRLD [C46L] gave an abundance fitness of -0.803 ± 0.1. In the case of KRLCLVCGDIASGYHYGVASCEACKAFFKRTIQGNIEYSCPATNEEEITKRRRKSCQACRFMKCLKVGMLKEGVRLD [C46E], the abundance fitness is reported as -0.623 ± 0.11. Variant KRLCLVCGDIASGYHYGVASCEACKAFFKRTIQGNIEYSCPATNEHEITKRRRKSCQACRFMKCLKVGMLKEGVRLD [C46H] has an abundance fitness of -0.308 ± 0.2. In the case of KRLCLVCGDIASGYHYGVASCEACKAFFKRTIQGNIEYSCPATNEFEITKRRRKSCQACRFMKCLKVGMLKEGVRLD [C46F], the abundance fitness is reported as -0.768 ± 0.21. KRLCLVCGDIASGYHYGVASCEACKAFFKRTIQGNIEYSCPATNEDEITKRRRKSCQACRFMKCLKVGMLKEGVRLD [C46D] gave an abundance fitness of -0.844 ± 0.22. In the case of KRLCLVCGDIASGYHYGVASCEACKAFFKRTIQGNIEYSCPATNEAEITKRRRKSCQACRFMKCLKVGMLKEGVRLD [C46A], the abundance fitness is reported as -0.888 ± 0.14. In the case of KRLCLVCGDIASGYHYGVASCEACKAFFKRTIQGNIEYSCPATNEGEITKRRRKSCQACRFMKCLKVGMLKEGVRLD [C46G], the abundance fitness is reported as -0.679 ± 0.073. For KRLCLVCGDIASGYHYGVASCEACKAFFKRTIQGNIEYSCPATNWCEITKRRRKSCQACRFMKCLKVGMLKEGVRLD [E45W], the abundance fitness was -0.981 ± 0.2. Variant KRLCLVCGDIASGYHYGVASCEACKAFFKRTIQGNIEYSCPATNMCEITKRRRKSCQACRFMKCLKVGMLKEGVRLD [E45M] has an abundance fitness of -0.176 ± 0.068. KRLCLVCGDIASGYHYGVASCEACKAFFKRTIQGNIEYSCPATNGCEITKRRRKSCQACRFMKCLKVGMLKEGVRLD [E45G] showed an abundance fitness of 0.003 ± 0.042. Variant KRLCLVCGDIASGYHYGVASCEACKAFFKRTIQGNIEYSCPATNICEITKRRRKSCQACRFMKCLKVGMLKEGVRLD [E45I] has an abundance fitness of -0.288 ± 0.18. Work on KRLCLVCGDIASGYHYGVASCEACKAFFKRTIQGNIEYSCPATNPCEITKRRRKSCQACRFMKCLKVGMLKEGVRLD [E45P] yielded an abundance fitness of -0.637 ± 0.15. In the case of KRLCLVCGDIASGYHYGVASCEACKAFFKRTIQGNIEYSCPATNCCEITKRRRKSCQACRFMKCLKVGMLKEGVRLD [E45C], the abundance fitness is reported as -0.396 ± 0.11. With KRLCLVCGDIASGYHYGVASCEACKAFFKRTIQGNIEYSCPATNDCEITKRRRKSCQACRFMKCLKVGMLKEGVRLD [E45D] the abundance fitness was -0.086 ± 0.086. In the case of KRLCLVCGDIASGYHYGVASCEACKAFFKRTIQGNIEYSCPATNNCEITKRRRKSCQACRFMKCLKVGMLKEGVRLD [E45N], the abundance fitness is reported as -0.235 ± 0.12. For KRLCLVCGDIASGYHYGVASCEACKAFFKRTIQGNIEYSCPATNHCEITKRRRKSCQACRFMKCLKVGMLKEGVRLD [E45H], the abundance fitness was -0.143 ± 0.1. For KRLCLVCGDIASGYHYGVASCEACKAFFKRTIQGNIEYSCPATNACEITKRRRKSCQACRFMKCLKVGMLKEGVRLD [E45A], the abundance fitness was -0.172 ± 0.051. Work on KRLCLVCGDIASGYHYGVASCEACKAFFKRTIQGNIEYSCPATNFCEITKRRRKSCQACRFMKCLKVGMLKEGVRLD [E45F] yielded an abundance fitness of -0.329 ± 0.17. With KRLCLVCGDIASGYHYGVASCEACKAFFKRTIQGNIEYSCPATNSCEITKRRRKSCQACRFMKCLKVGMLKEGVRLD [E45S] the abundance fitness was -0.149 ± 0.058. Work on KRLCLVCGDIASGYHYGVASCEACKAFFKRTIQGNIEYSCPATNTCEITKRRRKSCQACRFMKCLKVGMLKEGVRLD [E45T] yielded an abundance fitness of -0.209 ± 0.085. KRLCLVCGDIASGYHYGVASCEACKAFFKRTIQGNIEYSCPATNQCEITKRRRKSCQACRFMKCLKVGMLKEGVRLD [E45Q] gave an abundance fitness of 0.055 ± 0.059. Work on KRLCLVCGDIASGYHYGVASCEACKAFFKRTIQGNIEYSCPATNLCEITKRRRKSCQACRFMKCLKVGMLKEGVRLD [E45L] yielded an abundance fitness of -0.303 ± 0.06. Work on KRLCLVCGDIASGYHYGVASCEACKAFFKRTIQGNIEYSCPATNVCEITKRRRKSCQACRFMKCLKVGMLKEGVRLD [E45V] yielded an abundance fitness of -0.144 ± 0.047. With KRLCLVCGDIASGYHYGVASCEACKAFFKRTIQGNIEYSCPATRECEITKRRRKSCQACRFMKCLKVGMLKEGVRLD [N44R] the abundance fitness was 0.011 ± 0.038. Variant KRLCLVCGDIASGYHYGVASCEACKAFFKRTIQGNIEYSCPATKECEITKRRRKSCQACRFMKCLKVGMLKEGVRLD [N44K] has an abundance fitness of 0.007 ± 0.054. With KRLCLVCGDIASGYHYGVASCEACKAFFKRTIQGNIEYSCPATYECEITKRRRKSCQACRFMKCLKVGMLKEGVRLD [N44Y] the abundance fitness was -0.278 ± 0.13. With KRLCLVCGDIASGYHYGVASCEACKAFFKRTIQGNIEYSCPATWECEITKRRRKSCQACRFMKCLKVGMLKEGVRLD [N44W] the abundance fitness was -0.269 ± 0.058. Work on KRLCLVCGDIASGYHYGVASCEACKAFFKRTIQGNIEYSCPATLECEITKRRRKSCQACRFMKCLKVGMLKEGVRLD [N44L] yielded an abundance fitness of -0.278 ± 0.059. For KRLCLVCGDIASGYHYGVASCEACKAFFKRTIQGNIEYSCPATTECEITKRRRKSCQACRFMKCLKVGMLKEGVRLD [N44T], the abundance fitness was -0.22 ± 0.063. Variant KRLCLVCGDIASGYHYGVASCEACKAFFKRTIQGNIEYSCPATSECEITKRRRKSCQACRFMKCLKVGMLKEGVRLD [N44S] has an abundance fitness of -0.127 ± 0.05. KRLCLVCGDIASGYHYGVASCEACKAFFKRTIQGNIEYSCPATPECEITKRRRKSCQACRFMKCLKVGMLKEGVRLD [N44P] showed an abundance fitness of -0.741 ± 0.14. KRLCLVCGDIASGYHYGVASCEACKAFFKRTIQGNIEYSCPATIECEITKRRRKSCQACRFMKCLKVGMLKEGVRLD [N44I] showed an abundance fitness of 0.034 ± 0.13. KRLCLVCGDIASGYHYGVASCEACKAFFKRTIQGNIEYSCPATVECEITKRRRKSCQACRFMKCLKVGMLKEGVRLD [N44V] gave an abundance fitness of -0.077 ± 0.049. KRLCLVCGDIASGYHYGVASCEACKAFFKRTIQGNIEYSCPATQECEITKRRRKSCQACRFMKCLKVGMLKEGVRLD [N44Q] showed an abundance fitness of -0.013 ± 0.059.
